Measurements from patent US20180057589A1 (Genentech, published 2018).

Legend:
[1] = molecular target: T1, FLAG-Human-Notch2-NRR-6xHis (human, UniProt Q04721 1306-1676); assay: ELISA, lower panel: Flag-tagged NRR protein captured by anti-Flag antibody, titration of α-NRR2, AP-conjugated anti-human secondary antibody, A560
T1 construct: Whole tagged antigen construct; also called NRR2; hNotch2 NRR
T1 sequence: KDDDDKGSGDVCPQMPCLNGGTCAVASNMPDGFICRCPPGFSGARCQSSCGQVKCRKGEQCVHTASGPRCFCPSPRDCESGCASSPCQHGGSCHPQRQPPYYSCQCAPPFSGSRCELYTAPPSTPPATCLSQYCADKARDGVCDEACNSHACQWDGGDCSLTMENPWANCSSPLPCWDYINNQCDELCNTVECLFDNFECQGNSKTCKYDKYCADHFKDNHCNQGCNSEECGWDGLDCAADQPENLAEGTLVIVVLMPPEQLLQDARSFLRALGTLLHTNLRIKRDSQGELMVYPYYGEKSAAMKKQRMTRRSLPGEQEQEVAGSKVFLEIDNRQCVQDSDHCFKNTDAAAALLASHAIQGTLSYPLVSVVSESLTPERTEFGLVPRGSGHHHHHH
Source text: (§1) Anti-Flag antibody was used to capture Flag-Tagged NRR protein from all four Notch receptors in a black walled, high binding plate (Greiner). NRR antibody and E25 control antibodies were bound to the NRR proteins and washed away with PBS. An Alkaline Phosphate conjugated anti-human (H+L) secondary antibody (Jackson ImmunoResearch) was used to detect bound anti-NRR and E25. Unbound secondary was washed away and AP was detected with PNPP substrate (Pierce).

[2] = molecular target: T2, Mouse Notch2-NRR-FLAG (mouse, UniProt O35516 1306-1678); assay: SPR (BIAcore-3000), IgG captured by anti-human IgG, Notch2 NRR injected; mouse Notch2 NRR antigen
T2 construct: Whole tagged antigen construct; also called murine Notch2 NRR; mNotch2 NRR
T2 sequence: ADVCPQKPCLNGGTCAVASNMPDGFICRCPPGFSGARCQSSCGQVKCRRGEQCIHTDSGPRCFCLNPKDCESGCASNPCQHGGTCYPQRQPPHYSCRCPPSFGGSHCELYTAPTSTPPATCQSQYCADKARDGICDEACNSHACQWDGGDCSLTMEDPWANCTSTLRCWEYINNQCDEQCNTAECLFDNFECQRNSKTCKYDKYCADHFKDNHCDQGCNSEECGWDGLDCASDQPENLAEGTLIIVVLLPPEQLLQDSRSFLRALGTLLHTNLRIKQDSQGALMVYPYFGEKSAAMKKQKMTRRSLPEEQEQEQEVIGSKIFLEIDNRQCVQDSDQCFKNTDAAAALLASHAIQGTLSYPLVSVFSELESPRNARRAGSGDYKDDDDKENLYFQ
Description: (§2) For kinetics measurements, two-fold serial dilutions of human and mouse Notch2 NRR (3.9 nM to 500 nM) were injected in PBT buffer (PBS with 0.05% Tween 20) at 25° C. with a flow rate of 30 μl/min. Association rates (kₒₙ) and dissociation rates (koff) were calculated using a simple one-to-one Langmuir binding model (BIAcore Evaluation Software version 3.2). The equilibrium dissociation constant (KD) was calculated as the ratio koff/kₒₙ.

[3] = molecular target: T3, human Notch1 NRR protein (human, UniProt P46531 1446-1733); assay: ELISA, lower panel: Flag-tagged NRR protein captured by anti-Flag antibody, titration of α-NRR2, A560
T3 construct: Purified NRR fragment (Flag-tagged in the ELISA); also called NRR1; hNotch1 NRR
T3 sequence: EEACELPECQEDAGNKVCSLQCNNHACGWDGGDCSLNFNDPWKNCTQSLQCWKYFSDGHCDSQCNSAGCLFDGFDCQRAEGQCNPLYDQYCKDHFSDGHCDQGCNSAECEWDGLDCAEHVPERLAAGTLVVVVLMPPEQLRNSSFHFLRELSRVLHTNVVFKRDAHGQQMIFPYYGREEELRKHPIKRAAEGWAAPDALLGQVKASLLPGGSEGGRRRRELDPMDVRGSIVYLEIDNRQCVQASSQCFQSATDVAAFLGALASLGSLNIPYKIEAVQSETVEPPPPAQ
Source text: as §1

[4] = molecular target: T4, human Notch3-NRR protein (human, UniProt Q9UM47 1384-1641, limits assumed); assay: as above
T4 construct: domain: NRR; also called hNotch3 NRR
T4 sequence (looked up): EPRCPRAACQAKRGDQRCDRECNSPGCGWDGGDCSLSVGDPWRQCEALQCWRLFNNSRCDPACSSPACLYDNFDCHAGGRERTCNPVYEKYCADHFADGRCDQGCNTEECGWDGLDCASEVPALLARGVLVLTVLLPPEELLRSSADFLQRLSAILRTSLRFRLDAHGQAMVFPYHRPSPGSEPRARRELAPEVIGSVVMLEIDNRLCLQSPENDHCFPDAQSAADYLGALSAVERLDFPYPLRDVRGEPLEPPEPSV
Source text: as §1

[5] = molecular target: T5, human Notch4-NRR protein (human, UniProt Q99466 1172-1445, limits assumed); assay: as above
T5 construct: domain: NRR; also called hNotch4 NRR
T5 sequence (looked up): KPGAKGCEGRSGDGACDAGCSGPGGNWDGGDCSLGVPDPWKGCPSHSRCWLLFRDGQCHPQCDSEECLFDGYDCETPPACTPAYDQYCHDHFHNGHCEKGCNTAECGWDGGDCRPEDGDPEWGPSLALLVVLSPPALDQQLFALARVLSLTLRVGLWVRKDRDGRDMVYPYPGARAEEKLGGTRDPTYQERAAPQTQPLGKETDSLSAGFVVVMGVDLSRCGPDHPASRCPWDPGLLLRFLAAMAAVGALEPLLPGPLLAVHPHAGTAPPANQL
Source text: as §1

[6] = molecular target: T6, mouse Notch3-NRR protein (mouse, UniProt Q61982 1385-1641, limits assumed); assay: as above
T6 construct: domain: NRR; also called mNotch3 NRR
T6 sequence (looked up): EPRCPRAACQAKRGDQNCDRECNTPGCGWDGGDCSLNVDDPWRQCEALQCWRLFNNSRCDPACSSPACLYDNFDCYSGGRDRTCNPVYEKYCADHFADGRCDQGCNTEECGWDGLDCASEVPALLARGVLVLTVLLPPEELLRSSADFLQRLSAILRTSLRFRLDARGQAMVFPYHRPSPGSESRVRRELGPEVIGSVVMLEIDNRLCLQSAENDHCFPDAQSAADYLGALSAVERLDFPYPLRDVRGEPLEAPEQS
Source text: as §1

[7] = molecular target: T7, mouse Notch1 NRR protein (mouse, UniProt Q01705 1446-1723); assay: as above
T7 construct: Purified NRR fragment (Flag-tagged in the ELISA); also called mNotch1 NRR
T7 sequence: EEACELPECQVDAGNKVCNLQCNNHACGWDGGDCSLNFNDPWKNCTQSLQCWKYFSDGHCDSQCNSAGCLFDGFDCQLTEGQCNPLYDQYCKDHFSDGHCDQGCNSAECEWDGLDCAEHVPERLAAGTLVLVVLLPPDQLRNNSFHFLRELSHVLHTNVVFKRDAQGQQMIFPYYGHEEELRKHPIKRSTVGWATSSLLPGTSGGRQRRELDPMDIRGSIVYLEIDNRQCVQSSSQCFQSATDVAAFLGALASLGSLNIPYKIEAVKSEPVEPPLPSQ
Source text: as §1

[8] = molecular target: T8, mouse Notch4-NRR protein (mouse, UniProt P31695 1168-1441, limits assumed); assay: as above
T8 construct: domain: NRR; also called mNotch4 NRR
T8 sequence (looked up): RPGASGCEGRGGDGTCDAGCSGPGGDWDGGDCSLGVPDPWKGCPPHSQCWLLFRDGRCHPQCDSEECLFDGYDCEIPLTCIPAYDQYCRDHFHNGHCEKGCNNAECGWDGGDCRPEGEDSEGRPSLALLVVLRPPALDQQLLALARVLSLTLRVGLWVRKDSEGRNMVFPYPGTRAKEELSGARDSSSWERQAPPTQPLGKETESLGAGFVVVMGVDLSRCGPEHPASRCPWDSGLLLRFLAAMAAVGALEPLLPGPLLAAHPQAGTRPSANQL
Source text: as §1

[9] = molecular target: T1, FLAG-Human-Notch2-NRR-6xHis; assay: SPR (BIAcore-3000), IgG captured by anti-human IgG, Notch2 NRR injected; human Notch2 NRR antigen
Description: as §2

EC50 (read off the curve) [1]: ~0.03 µg/mL | Kd [2]: 5 nM | binding result [3]: no binding (tested: 10 ug/ml) | binding result [4]: no binding (tested: 10 ug/ml) | binding result [5]: no binding (tested: 10 ug/ml) | binding result [6]: no binding (tested: 10 ug/ml) | binding result [7]: no binding (tested: 10 ug/ml) | binding result [8]: no binding (tested: 10 ug/ml) | Kd [9]: 5 nM
B1: Antibody D-3 (antibody, V domains shown)
VH: EVQLVESGGGLVQPGGSLRLSCAASGYTFSSYGMSWVRQAPGKGLEWVSYIYPYSGATYYADSVKGRFTISADTSKNTAYLQMNSLRAEDTAVYYCARHSGYYRISSAMDVWGQGTLVTVSA
VL: DIQMTQSPSSLSASVGDRVTITCRASQNIKRFLAWYQQKPGKAPKLLIYGASTRESGVPSRFSGSGSGTDFTLTISSLQPEDFATYYCQQYYRSPHTFGQGTKVEIKR
notes: also called anti-NRR2; α-NRR2
